Measured values from patent US11795460B2, “Compositions and methods for TTR gene editing and treating ATTR amyloidosis” (Intellia Therapeutics, Inc., priority 2017, dated 2023).
Strand notation (5' to 3'): a small letter for the sugar, then the base; units joined by * are phosphorothioate-linked, units joined directly phosphodiester-linked; [ ] holds rarer units or linkages, { } end groups; capitals alone tell only the bases. m = 2'-O-methyl; r = 2'-OH (RNA)

Legend:
TTR [1] = assay: TTR editing in primary human hepatocytes transfected with Spy Cas9 mRNA and sgRNAs (Table 13); format: cell-based; conditions: primary human hepatocytes co-transfected with Spy Cas9 mRNA (SEQ ID NO:2) and sgRNAs, 12.5 nM
Description: (§1) Primary liver hepatocytes. Primary human liver hepatocytes (PHH) and primary cynomolgus liver hepatocytes (PCH) (Gibco) were cultured per the manufacturer's protocol (Invitrogen, protocol 11.28.2012). In brief, the cells were thawed and resuspended in hepatocyte thawing medium with supplements (Gibco, Cat. CM7000) followed by centrifugation at 100 g for 10 minutes for human and 80 g for 4 minutes for cyno. The supernatant was discarded and the pelleted cells resuspended in hepatocyte plating medium plus supplement pack (Invitrogen, Cat. A1217601 and CM3000). Cells were counted and plated on Bio-coat collagen I coated 96-well plates (ThermoFisher, Cat. 877272) at a density of 33,000 cells/well for human or 60,000 cells/well for cyno (or 65,000 cells/well when assaying effects on TTR protein, described further below). Plated cells were allowed to settle and adhere for 6 or 24 hours in a tissue culture incubator at 37° C. and 5% CO2 atmosphere. After incubation cells were checked for monolayer formation and media was replaced with hepatocyte culture medium with serum-free supplement pack (Invitrogen, Cat. A1217601 and CM4000).
Lipofectamine RNAiMax (ThermoFisher, Cat. 13778150) based transfections were conducted as per the manufacturer's protocol. Cells were sequentially transfected with a lipoplex containing Spy Cas9 mRNA (100 ng), Lipofectamine RNAiMax (0.4 […]) and tracer RNA ([…]), Lipofectamine RNAiMax (0.4 μL/well) and OptiMem.
Transfected cells were harvested post-transfection at 24, 48, or 72 hours. The genomic DNA was extracted from each well of a 96-well plate using 50 μL/well BuccalAmp DNA Extraction solution (Epicentre, Cat. QE09050) per manufacturer's protocol. All DNA samples were subjected to PCR and subsequent NGS analyses, as described herein.
(§2) To quantitatively determine the efficiency of editing at the target location in the genome, sequencing was utilized to identify the presence of insertions and deletions introduced by gene editing.
(§3) Primers were designed around the target site within the gene of interest (e.g. TTR), and the genomic area of interest was amplified.
(§4) Additional PCR was performed per the manufacturer's protocols (Illumina) to add chemistry for sequencing. The amplicons were sequenced on an Illumina MiSeq instrument. The reads were aligned to a reference genome (e.g., the human reference genome (hg38), the cynomologus reference genome (mf5), the rat reference genome (rn6), or the mouse reference genome (mm10)) after eliminating those having low quality scores. The resulting files containing the reads were mapped to the reference genome (BAM files), where reads that overlapped the target region of interest were selected and the number of wild type reads versus the number of reads which contain an insertion, substitution, or deletion was calculated.
(§5) The editing percentage (e.g., the “editing efficiency” or “percent editing” or “indel frequency”) is defined as the total number of sequence reads with insertions/deletions (“indels”) or substitutions over the total number of sequence reads, including wild type.
Guides in modified sgRNA format targeting human and/or cyno TTR were delivered to primary human hepatocytes and primary cyno hepatocytes as described in Example 1. Percent editing was determined for crRNAs comprising each guide sequence across each cell type and the guide sequences were then rank ordered based on highest % edit. The screening data for the guide sequences in Table 2 in both cell lines are listed below (Table 12 through 15).

TTR [2] = assay: TTR editing in primary cyno hepatocytes treated with LNP formulated Spy Cas9 mRNA (SEQ ID NO: 2) and sgRNAs (Tables 17, 18); format: cell-based, cynomolgus monkey; conditions: Table 17, LNP formulated Spy Cas9 mRNA (SEQ ID NO: 2) and sgRNA, 12.5 ng mRNA, 3.9 nM sgRNA, 72 hours
In short: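 Primary cynomolgus hepatocytes, 24 h after plating, dosed with LNPs (N:P about 4.5 or 6, mRNA:gRNA 1:1 by weight) pre-incubated 5 min at 37° C. in medium with 6% cyno serum, in an 8-point 2-fold dose response. Editing = indel/substitution reads over total reads by amplicon MiSeq sequencing.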

[3] = test system: off-target integration sites; assay: Off-target oligo insertion based assay in primary human hepatocytes (Table 30); format: cell-based; conditions: TTR sgRNAs in PHH, 100 ng Cas9 mRNA, 25 nM sgRNA, 12.5 nM donor oligo
Description: Off-target analysis of sgRNAs targeting TTR was performed in primary human hepatocytes (PHH) as described in Example 5, with the following modifications. PHH were plated at a density of 33,000 cells per well on collagen-coated 96-well plates as described in Example 1. Twenty-four hours post plating, cells were washed with media and transfected using Lipofectamine RNAiMAX (ThermoFisher, Cat. 13778150) as described in Example 1. Cells were transfected with a lipoplex containing 100 ng Cas9 mRNA, immediately followed by the addition of another lipoplex containing 25 nM of the sgRNA and 12.5 nM of the donor oligo (0.3 μL/well). Cells were lysed 48 hours post-transfection and gDNA was extracted and analyzed as further described in Example 5. The data is graphically represented in FIG. 20.
Fewer sites were detected in PHH for every guide tested as compared to the HekCas9 cell line, with no unique sites detected in PHH alone.

TTR [4] = assay: TTR editing in primary human hepatocytes treated with LNP formulated Spy Cas9 mRNA (SEQ ID NO: 2) and sgRNAs (Table 16); format: cell-based; conditions: LNP formulated Spy Cas9 mRNA (SEQ ID NO: 2) and sgRNA, 72 hours
Description: as §1
In general, the lipid nanoparticle components were dissolved in 100% ethanol with the lipid component of various molar ratios. The RNA cargos were dissolved in 25 mM citrate, 100 mM NaCl, pH 5.0, resulting in a concentration of RNA cargo of approximately 0.45 mg/mL. The LNPs were formulated with a lipid amine to RNA phosphate (N:P) molar ratio of about 4.5 or about 6, with the ratio of mRNA to gRNA at 1:1 by weight.
The LNPs were formed by microfluidic mixing of the lipid and RNA solutions using a Precision Nanosystems NanoAssemblr™ Benchtop Instrument, according to the manufacturer's protocol. A 2:1 ratio of aqueous to organic solvent was maintained during mixing using differential flow rates. After mixing, the LNPs were collected, diluted in water (approximately 1:1 v/v), held for 1 hour at room temperature, and further diluted with water (approximately 1:1 v/v) before final buffer exchange. The final buffer exchange into 50 mM Tris, 45 mM NaCl, 5% (w/v) sucrose, pH 7.5 (TSS) was completed with PD-10 desalting columns (GE). If required, formulations were concentrated by centrifugation with Amicon 100 kDa centrifugal filters (Millipore). The resulting mixture was then filtered using a 0.2 μm sterile filter. The final LNP was stored at −80° C. until further use.
as §2, §3, §4, §5
Lipid nanoparticle formulations of modified sgRNAs targeting human TTR and the cyno matched sgRNA sequences were tested on primary human hepatocytes and primary cyno hepatocytes in a dose response curve. Primary human and cyno hepatocytes were plated as described in Example 1. […]

Molecule	Avg % Deletion (TTR [1]) [%]	Avg % Edit (TTR [1]) [%]	Avg % Insert (TTR [1]) [%]	12.5 ng mRNA, 3.9 nM sgRNA Avg % Edit (TTR [2]) [%]	# Sites in PHH [3]	12.5 ng mRNA, 3.9 nM sgRNA Avg % Edit (TTR [4]) [%]
G000497: TTR sgRNA modified sequence, Human, SEQ ID No. 104; guide sequence of CR003335 (nucleic acid) guide: mC*mU*mG*rCrUrCrCrUrCrCrUrCrUrGrCrCrUrUrGrCrGrUrUrUrUrArGrAmGmCmUmAmGmAmAmAmUmAmGmCrArArGrUrUrArArArArUrArArGrGrCrUrArGrUrCrCrGrUrUrArUrCrAmAmCmUmUmGmAmAmAmAmAmGmUmGmGmCmAmCmCmGmAmGmUmCmGmGmUmGmCmU*mU*mU*mU	5.85	40.33	34.48	0.23	3	15.10
G000501: TTR sgRNA modified sequence, Human, SEQ ID No. 108; guide sequence of CR005300 (nucleic acid) guide: mU*mC*mA*rCrArGrArArArCrArCrUrCrArCrCrGrUrArGrUrUrUrUrArGrAmGmCmUmAmGmAmAmAmUmAmGmCrArArGrUrUrArArArArUrArArGrGrCrUrArGrUrCrCrGrUrUrArUrCrAmAmCmUmUmGmAmAmAmAmAmGmUmGmGmCmAmCmCmGmAmGmUmCmGmGmUmGmCmU*mU*mU*mU	6.62	40.32	33.82	1.37	0	32.30
G000500: TTR sgRNA modified sequence, Human, SEQ ID No. 107; guide sequence of CR003337 (nucleic acid) guide: mC*mC*mA*rGrUrCrCrArGrCrArArGrGrCrArGrArGrGrGrUrUrUrUrArGrAmGmCmUmAmGmAmAmAmUmAmGmCrArArGrUrUrArArArArUrArArGrGrCrUrArGrUrCrCrGrUrUrArUrCrAmAmCmUmUmGmAmAmAmAmAmGmUmGmGmCmAmCmCmGmAmGmUmCmGmGmUmGmCmU*mU*mU*mU	3.10	35.50	32.47	10.47	12	23.57
G000495: TTR sgRNA modified sequence, Human, SEQ ID No. 102; guide sequence of CR003343 (nucleic acid) guide: mC*mA*mG*rArGrGrArCrArCrUrUrGrGrArUrUrCrArCrGrUrUrUrUrArGrAmGmCmUmAmGmAmAmAmUmAmGmCrArArGrUrUrArArArArUrArArGrGrCrUrArGrUrCrCrGrUrUrArUrCrAmAmCmUmUmGmAmAmAmAmAmGmUmGmGmCmAmCmCmGmAmGmUmCmGmGmUmGmCmU*mU*mU*mU	4.45	47.77	43.40	0.73	1	23.97
G000567: TTR sgRNA modified sequence, Human, SEQ ID No. 109; guide sequence of CR003352 (nucleic acid) guide: mG*mA*mA*rArGrGrCrUrGrCrUrGrArUrGrArCrArCrCrGrUrUrUrUrArGrAmGmCmUmAmGmAmAmAmUmAmGmCrArArGrUrUrArArArArUrArArGrGrCrUrArGrUrCrCrGrUrUrArUrCrAmAmCmUmUmGmAmAmAmAmAmGmUmGmGmCmAmCmCmGmAmGmUmCmGmGmUmGmCmU*mU*mU*mU	10.02	27.28	17.35	0.10	0	48.95
G000498: TTR sgRNA modified sequence, Human, SEQ ID No. 105; guide sequence of CR003359 (nucleic acid) guide: mA*mG*mU*rGrArGrUrCrUrGrGrArGrArGrCrUrGrCrArGrUrUrUrUrArGrAmGmCmUmAmGmAmAmAmUmAmGmCrArArGrUrUrArArArArUrArArGrGrCrUrArGrUrCrCrGrUrUrArUrCrAmAmCmUmUmGmAmAmAmAmAmGmUmGmGmCmAmCmCmGmAmGmUmCmGmGmUmGmCmU*mU*mU*mU	14.90	60.02	45.20	37.90	19	24.43
G000570: TTR sgRNA modified sequence, Human, SEQ ID No. 111; guide sequence of CR003347 (nucleic acid) guide: mC*mA*mU*rUrGrArUrGrGrCrArGrGrArCrUrGrCrCrUrGrUrUrUrUrArGrAmGmCmUmAmGmAmAmAmUmAmGmCrArArGrUrUrArArArArUrArArGrGrCrUrArGrUrCrCrGrUrUrArUrCrAmAmCmUmUmGmAmAmAmAmAmGmUmGmGmCmAmCmCmGmAmGmUmCmGmGmUmGmCmU*mU*mU*mU	0.35	68.42	68.08	17.30	1	88.30
G000572: TTR sgRNA modified sequence, Human, SEQ ID No. 113; guide sequence of CR003385 (nucleic acid) guide: mC*mC*mC*rCrUrArCrUrCrCrUrArUrUrCrCrArCrCrArGrUrUrUrUrArGrAmGmCmUmAmGmAmAmAmUmAmGmCrArArGrUrUrArArArArUrArArGrGrCrUrArGrUrCrCrGrUrUrArUrCrAmAmCmUmUmGmAmAmAmAmAmGmUmGmGmCmAmCmCmGmAmGmUmCmGmGmUmGmCmU*mU*mU*mU	13.85	55.42	41.62	30.60	2	55.45
G000568: TTR sgRNA modified sequence, Human, SEQ ID No. 110; guide sequence of CR003391 (nucleic acid) guide: mG*mG*mC*rUrGrUrCrGrUrCrArCrCrArArUrCrCrCrArGrUrUrUrUrArGrAmGmCmUmAmGmAmAmAmUmAmGmCrArArGrUrUrArArArArUrArArGrGrCrUrArGrUrCrCrGrUrUrArUrCrAmAmCmUmUmGmAmAmAmAmAmGmUmGmGmCmAmCmCmGmAmGmUmCmGmGmUmGmCmU*mU*mU*mU	0.80	43.75	43.00	9.25	11	54.60
